The nature of data set [1]: thermal shift assay of FEM1B constructs. The data set is classed as physicochemical. The settings on record: average of three replicates. Here is the method:
The substrate binding domain of FEM1B (residues 1–356, ~42 kDa molecular weight) was prepared for NMR‐based screening. However, this construct (FEM1B WT) was prone to aggregation and was not suitable for the NMR experiments. […] To reduce the potential for aggregation, we prepared several mutants of FEM1B constructs and evaluated their stability using a thermal shift assay (Table 1).

Data set [2] is described as follows: stability of construct at room temperature. The data set is classed as physicochemical. The text has this: Two FEM1B constructs (FEM1B‐1 and FEM1B‐2) were designed to remove free cysteines on the exterior of the protein to prevent disulfide bond formation and prevent aggregation. FEM1B‐3 to FEM1B‐11 were designed to modify hydrophobic residues on the protein surface and reduce the predicted pI away from the pH needed for the experiment. To accomplish this, residues such as Leu, Ile, Val, or Arg were mutated to negatively charged residues (Asp or Glu) to shift the pI to be more acidic. Hydrophobic residues on the surface of the protein were chosen for mutation to also reduce solvent‐exposed hydrophobic patches that may be contributing to the aggregation (Figure S1, Supporting Information).

B1: FEM1B‐11: FEM1B construct, mutations L4E, L18E, A21E, L25S, Y84A, I270N, L281E, R321D (protein, UniProt Q9UK73 1-627, looked up, variant L4E L18E A21E L25S Y84A I270N L281E R321D)
Protein fem-1 homolog B: MEGEAGYVYKAASEGKVETLEALLSNRSESDIRYLLGYVSQQGGQRSTPLIIAARNGHAKVVRLLLEHYRVQTQQTGTVRFDGAVIDGATALWCAAGAGHFEVVKLLVSHGANVNHTTVTNSTPLRAACFDGRLDIVKYLVENNANISIANKYDNTCLMIAAYKGHTDVVRYLLEQRADPNAKAHCGATALHFAAEAGHIDIVKELIKWRAAIVVNGHGMTPLKVAAESCKADVVELLLSHADCDRRSRIEALELLGASFANDRENYDINKTYHYLYLAMEERFQDGDNILEKEVLPPIHAYGNRTECRNPQELESIRQDDDALHMEGLIVRERILGADNIDVSHPIIYRGAVYADNMEFEQCIKLWLHALHLRQKGNRNTHKDLLRFAQVFSQMIHLNETVKAPDIECVLRCSVLEIEQSMNRVKNISDADVHNAMDNYECNLYTFLYLVCISTKTQCSEEDQCKINKQIYNLIHLDPRTREGFTLLHLAVNSNTPVDDFHTNDVCSFPNALVTKLLLDCGAEVNAVDNEGNSALHIIVQYNRPISDFLTLHSIIISLVEAGAHTDMTNKQNKTPLDKSTTGVSEILLKTQMKMSLKCLAARAVRANDINYQDQIPRTLEEFVGFH
Take B1: the “Tm ± SD” value in data set [1] was determined as 48.6 ± 1.7 °C. For the same molecule, the “stable at room temperature” value in data set [2] is recorded as “over 24 h”.

B2: FEM1B‐6: FEM1B construct, mutations Y84A, I270N, L281E, R321D (protein, UniProt Q9UK73 1-627, looked up, variant Y84A I270N L281E R321D)
Protein fem-1 homolog B: MEGLAGYVYKAASEGKVLTLAALLLNRSESDIRYLLGYVSQQGGQRSTPLIIAARNGHAKVVRLLLEHYRVQTQQTGTVRFDGAVIDGATALWCAAGAGHFEVVKLLVSHGANVNHTTVTNSTPLRAACFDGRLDIVKYLVENNANISIANKYDNTCLMIAAYKGHTDVVRYLLEQRADPNAKAHCGATALHFAAEAGHIDIVKELIKWRAAIVVNGHGMTPLKVAAESCKADVVELLLSHADCDRRSRIEALELLGASFANDRENYDINKTYHYLYLAMEERFQDGDNILEKEVLPPIHAYGNRTECRNPQELESIRQDDDALHMEGLIVRERILGADNIDVSHPIIYRGAVYADNMEFEQCIKLWLHALHLRQKGNRNTHKDLLRFAQVFSQMIHLNETVKAPDIECVLRCSVLEIEQSMNRVKNISDADVHNAMDNYECNLYTFLYLVCISTKTQCSEEDQCKINKQIYNLIHLDPRTREGFTLLHLAVNSNTPVDDFHTNDVCSFPNALVTKLLLDCGAEVNAVDNEGNSALHIIVQYNRPISDFLTLHSIIISLVEAGAHTDMTNKQNKTPLDKSTTGVSEILLKTQMKMSLKCLAARAVRANDINYQDQIPRTLEEFVGFH
Turning to B2, the “Tm ± SD” value in data set [1] is 37.3 ± 0.04 °C.

Source of the values: publication PMC12612594, “Nuclear Magnetic Resonance‐based fragment screen of the E3 ligase Fem‐1 homolog B” (Protein Science : A Publication of the Protein Society, 2025).
